Results on two molecules are retold here after publication PMC8007570.

The target of one data set is Pf MRNBD Y199C (Pyrococcus furiosus, UniProt Q8U1N9;P58301 1-426;1-195+709-882, Y199C;internal_change). Description: fluorescence polarization; 1 mM MnCl2, 0.1 mM EDTA, no ATP/Mg2+; FP: 25 nM DNA, 50 mM HEPES, 100 mM NaCl, 1 mM MnCl2, 0.1 mM EDTA, 1% glycerol, 1 mM TCEP, 0.1% PEG-6000, pH 7, 15 min room temperature; NMR at 50 C. A general note: Fluorescence polarisation rises when a labelled molecule tumbles more slowly, as on binding a larger partner.

Data set [1] has as its target Pf MRNBD wild type (Mre11 + Rad50 NBD) (Pyrococcus furiosus, UniProt Q8U1N9;P58301 1-426;1-195+709-882, internal_change). The description is as above.

B1: FAM 40-mer dsDNA (dsDNA)
DNA 1: GTGTTCGGACTCTGCCTCAAGACGGTAGTCAACGTGCTTG
DNA 2: CAAGCACGTTGACTACCGTCTTGAGGCAGAGTCCGAACAC
A word on the Kd: it is the equilibrium constant for the complex coming apart. As for B1, the values for the Kd (with Pf MRNBD Y199C; in data set [1]) were 2500 nM and 2000 nM, respectively.
For GTGTTCGGACTCTGCCTCAAGACGGTAGTCAACGTGCTTG (ssDNA) [FAM 40-mer ssDNA] the same measures were 350 nM and 310 nM.
